Laboratory results: ChEMBL document CHEMBL4043266, “Pentacyclic triterpenes as α-glucosidase and α-amylase inhibitors: Structure-activity relationships and the synergism with acarbose” (Bioorg Med Chem Lett, 2017)

Experiments:
Conditions in all cases: Sus scrofa
[1] = compound: C[C@H]1[C@H](C)CC[C@]2(C(=O)O)CC[C@]3(C)C(=CC[C@@H]4[C@@]5(C)C[C@@H](O)[C@H](O)C(C)(C)[C@@H]5CC[C@]43C)[C@H]12; test: Inhibition of porcine pancreatic alpha-amylase assessed as Km for substrate using starch as substrate at 15.6 uM by Michaelis-Menten plot analysis (reference value: 2.48 +/- 0.24 mg/ml)
[2] = compound: C[C@H]1[C@H](C)CC[C@]2(C(=O)O)CC[C@]3(C)C(=CC[C@@H]4[C@@]5(C)C[C@@H](O)[C@H](O)C(C)(C)[C@@H]5CC[C@]43C)[C@H]12; test: Inhibition of porcine pancreatic alpha-amylase assessed as Km for substrate using starch as substrate at 31.2 uM by Michaelis-Menten plot analysis (reference value: 2.48 +/- 0.24 mg/ml)
[3] = compound: C[C@H]1[C@H](C)CC[C@]2(C(=O)O)CC[C@]3(C)C(=CC[C@@H]4[C@@]5(C)C[C@@H](O)[C@H](O)C(C)(C)[C@@H]5CC[C@]43C)[C@H]12; test: Inhibition of porcine pancreatic alpha-amylase assessed as Vmax for substrate using starch as substrate at 15.6 uM by Michaelis-Menten plot analysis (reference value: 28.6 +/- 1.8 microg/ml/min)
[4] = compound: C[C@H]1[C@H](C)CC[C@]2(C(=O)O)CC[C@]3(C)C(=CC[C@@H]4[C@@]5(C)C[C@@H](O)[C@H](O)C(C)(C)[C@@H]5CC[C@]43C)[C@H]12; test: Inhibition of porcine pancreatic alpha-amylase assessed as Vmax for substrate using starch as substrate at 31.2 uM by Michaelis-Menten plot analysis (reference value: 28.6 +/- 1.8 microg/ml/min)

B1: Pancreatic alpha-amylase (Sus scrofa), P00690 (protein)
chain: MKLFLLLSAFGFCWAQYAPQTQSGRTSIVHLFEWRWVDIALECERYLGPKGFGGVQVSPPNENIVVTNPSRPWWERYQPVSYKLCTRSGNENEFRDMVTRCNNVGVRIYVDAVINHMCGSGAAAGTGTTCGSYCNPGNREFPAVPYSAWDFNDGKCKTASGGIESYNDPYQVRDCQLVGLLDLALEKDYVRSMIADYLNKLIDIGVAGFRIDASKHMWPGDIKAVLDKLHNLNTNWFPAGSRPFIFQEVIDLGGEAIQSSEYFGNGRVTEFKYGAKLGTVVRKWSGEKMSYLKNWGEGWGFMPSDRALVFVDNHDNQRGHGAGGASILTFWDARLYKVAVGFMLAHPYGFTRVMSSYRWARNFVNGQDVNDWIGPPNNNGVIKEVTINADTTCGNDWVCEHRWRQIRNMVWFRNVVDGQPFANWWANGSNQVAFGRGNRGFIVFNNDDWQLSSTLQTGLPGGTYCDVISGDKVGNSCTGIKVYVSSDGTAQFSISNSAEDPFIAIHAESKL
Km [1]: 2.28 mg/mL | Km [2]: 2.69 mg/mL | Vmax [3]: 21 µg/mL/min | Vmax [4]: 14.3 µg/mL/min
